Paper doi:10.1101/2023.07.29.551094

Biological target: TslA lipase domain, purified (S. aureus)
Test: ITC

B1: TilA (SAOUHSC_00405) lacking its signal sequence, His tag removed (natural protein)
chain: CGNMKDEQKKEEQTNKTDSKEEQIKKSFAKTLDMYPIKNLEDLYDKEGYRDGEFKKGDKGTWTILTGFSKSNKPGVLDDEGMVLYLNRNTKKATGYYFVNKVYDDISKNHNEKKYRVELKNNKIVLLDNVEDKKLKQKIENFKFFSQYADFKDLKNYQDGNITTNENVPSYEAQYKMNNSDKNVKKLREIYPITTNNSPNLKLYIDGDIKGSSVGYKKIEYKFSKDKGQETTLRDYLNFGPSEGENVE
- Kd: 0.0142 µM
- dH: -85.8 kJ/mol
- stoichiometry N: 0.88
